B1: RAP: Receptor associated protein, an LRP1 antagonist which inhibits ligand binding to LRP1 (protein, UniProt P30533 35-357, looked up)
Alpha-2-macroglobulin …: YSREKNQPKPSPKRESGEEFRMEKLNQLWEKAQRLHLPPVRLAELHADLKIQERDELAWKKLKLDGLDEDGEKEARLIRNLNVILAKYGLDGKKDARQVTSNSLSGTQEDGLDDPRLEKLWHKAKTSGKFSGEELDKLWREFLHHKEKVHEYNVLLETLSRTEEIHENVISPSDLSDIKGSVLHSRHTELKEKLRSINQGLDRLRRVSHQGYSTEAEFEEPRVIDLWDLAQSANLTDKELEAFREELKHFEAKIEKHNHYQKQLEIAHEKLRHAESVGDGERVSRSREKHALLEGRTKELGYTVKKHLQDLSGRISRARHNEL

Key:
CD13+ pericytes = test: Cy3-Aβ42 uptake by pericytes on freshly isolated mouse brain cortical slices; format: cell-based; details: Cy3-Aβ42 1 μM
Procedure: Brain slices were prepared from 2-month old C57BL6 mice or Lrp^lox/lox;Cspg4-Cre mice. Following the urethane anesthesia, brains were quickly removed from the cranial cavity and sectioned with McIlwain tissue chopper (Ted Pella, Inc., Redding, CA, USA) into 200 μm thick slices containing cortex and hippocampus, as previously described. Slices were recovered for 30 min in a submersion chamber filled with the per-warmed (at 37 °C) artificial cerebrospinal fluid (aCSF; 126 mM NaCl, 2.5 mM KCl, 1.25 mM Na2PO4, 26 mM NaHCO3, 1 mM MgCl2, 2 mM CaCl2, 0.5 mM ascorbic acid, 2 mM sodium pyrurate, and 10 mM glucose, saturated with 95% O2 and 5% CO2). […] (anti-LRP1 N20, 50 μg/ml; Santa Cruz Biotech., Santa Cruz, CA, USA) for 20 min at 37 °C. At the end of the experiment, brain slices were washed with phosphate buffer saline (PBS) and fixed with 4% PFA for 30 min. The same immunostaining procedure as for human brain tissue without antigen retrieval was performed on mouse brain slices. Primary antibodies included goat anti-mouse aminopeptidase N (CD13) (1:100, R&D Systems), and goat anti-mouse PDGFRβ (1:100, R&D Systems). Secondary antibodies were: Alexa 488-conjugated donkey anti-goat (1:200, Invitrogen). Images were obtained with Zeiss 510 confocal microscopy (Carl Zeiss MicroImaging Inc.) with lasers and band-pass filter settings as described above. […]

[1] = system: primary mouse brain pericytes; test: Clearance of aggregated Cy3-Aβ42 from multi-spot glass slides by primary mouse brain pericytes; format: cell-based; details: 5 days of culture, 1 μg Cy3-Aβ42 per spot, 5,000 cells per spot; anti-LRP1 50 μg/ml, RAP 500 nM, or si.Lrp1; compared to cell-free control; N = 4 independent cultures, mean
Description: Brain capillaries were isolated from mouse cortices pooled from 3 to 4 mouse brains for each biological replicate. In experiments in Figs. 4 and 5, we used 3–4 independent biological replicates (cultures), as indicated in the legends to these respective figures. Capillaries were isolated as we have described previously. In brief, mouse cortices were macroscopically dissected, and all visible white matter was discarded in ice-cold PBS containing 2% fetal bovine serum (FBS). The brain was homogenized in PBS containing 2% FBS and centrifuged at 6,000 g for 15 min after addition of Dextran (70 kDa, Sigma). The capillary pellet was collected and sequentially filtered through a 45 μm cell strainer (BD Falcon). […]
The multi-spot glass slides (Thermo Scientific, 9991090, Waltham, MA, USA) were coated with Cy3- Aβ42 [29, 51] at 1 μg per spot without cells or with brain capillary pericytes treated with non-immune IgG (NI-IgG) or LRP1-specific blocking antibody (anti-LRP1; 50 μg/ml) or) or apoE-specific blocking antibody (anti-apoE, HJ6.3, 50 μg/ml), scrambled siRNA (si.Control) or LRP1 siRNA (si.Lrp1) (Dharmacon, E-040764-00-0010) or apoE siRNA (si.Apoe) (Dharmacon, E-040885-00-0005), and 500 nM receptor-associated protein (RAP) (EMD Bioscience), lipidated apoE3 (40 nM) or apoE4 (40 nM). […] The Cy3-Aβ42 relative intensity was analyzed with the NIH Image J software. […]

Row | Molecule | Uptake of Cy3-Aβ42 by pericytes, time course (CD13+ pericytes; 30 min vs 2 h) | Cy3-Aβ42+ area occupying CD13+ pericyte profiles (CD13+ pericytes; 2 h, in the presence of the LRP1 inhibitor (anti-LRP1 50 μg/ml), confocal microscopy, N = 4 independent cultures, mean) [%] | Cy3-Aβ42 cleared by pericytes [1] [%]
1 | Cy3-Aβ42: Human Cy3-labelled amyloid-β42; preparation contained monomers, dimers, trimers, tetramers and small molecular weight oligomers [reference compound] | rapid and time-dependent |  | 
2 | B1 |  | 21.7 | 27.3

— publication PMC6194676, “Blood-brain barrier-associated pericytes internalize and clear aggregated amyloid-β42 by LRP1-dependent apolipoprotein E isoform-specific mechanism” (Molecular Neurodegeneration, 2018)
